According to article PMC9575183 (Developmental cell, 2020):

Biological target: T1, Recombinant GST-RILP wt, full length (human, UniProt Q96NA2 1-401)
T1 sequence (looked up): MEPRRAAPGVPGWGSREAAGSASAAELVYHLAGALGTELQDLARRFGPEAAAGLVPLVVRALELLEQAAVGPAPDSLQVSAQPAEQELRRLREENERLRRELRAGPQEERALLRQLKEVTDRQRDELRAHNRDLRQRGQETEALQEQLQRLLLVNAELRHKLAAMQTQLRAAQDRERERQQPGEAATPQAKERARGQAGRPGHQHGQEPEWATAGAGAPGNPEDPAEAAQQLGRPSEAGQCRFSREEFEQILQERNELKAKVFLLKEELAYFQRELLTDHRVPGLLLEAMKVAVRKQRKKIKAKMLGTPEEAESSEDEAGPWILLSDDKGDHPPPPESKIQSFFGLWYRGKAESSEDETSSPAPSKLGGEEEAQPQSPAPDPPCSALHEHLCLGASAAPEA
Assay: pull-down

binding result: binds
B1: Recombinant human His-tagged ATG5 (natural protein, UniProt Q9H1Y0 1-275, looked up)
chain: MTDDKDVLRDVWFGRIPTCFTLYQDEITEREAEPYYLLLPRVSYLTLVTDKVKKHFQKVMRQEDISEIWFEYEGTPLKWHYPIGLLFDLLASSSALPWNITVHFKSFPEKDLLHCPSKDAIEAHFMSCMKEADALKHKSQVINEMQKKDHKQLWMGLQNDRFDQFWAINRKLMEYPAEENGFRYIPFRIYQTTTERPFIQKLFRPVAADGQLHTLGDLLKEVCPSAIDPEDGEKKNQVMIHGIEPMLETPLQWLSEHLSYPDNFLHISIIPQPTD
